{"source": "paper PMC6937560", "target": "myeloperoxidase (MPO), mature form from neutrophils of healthy human donors (human) (UniProt P05164)", "experiment": "native MS; about 3 uM MPO in 150 mM ammonium acetate pH 7.5, direct infusion, Micromass LCT; monomer (light + heavy chain) to dimer"}
{"substance": "myeloperoxidase (MPO), mature form from neutrophils of healthy human donors (from UniProt P05164 279-745) (enzyme)", "values": [{"measurement": "stoichiometry N", "value": 2}]}
